Measurements from patent US20220033520A1.

Tests used:
[1] = target: human FcRn complex (FCGRT and beta-2 microglobulin), recombinant, purified (human) (UniProt P55899); test: SPR, anti-human Fab capture, pH 6, steady state
[2] = target: human FcRn complex (FCGRT and beta-2 microglobulin), recombinant, purified (human) (UniProt P55899); test: SPR, anti-human Fab capture, pH 7.4, steady state
[3] = target: human FcRn complex (FCGRT and beta-2 microglobulin), recombinant, purified (human) (UniProt P55899); test: SPR, protein L capture, pH 6, kinetic
[4] = target: human FcRn complex (FCGRT and beta-2 microglobulin), recombinant, purified (human) (UniProt P55899); test: SPR, protein L capture, pH 7.4, steady state
[5] = target: human FcRn (FCGRT and beta-2 microglobulin) expressed on MDCK II cells (human) (UniProt P55899); test: cell-based or functional assay
human FcRn (FCGRT and beta-2 microglobulin) expressed on MDCK II cells (human), sequence (P55899 24-365, chain 1 of 2): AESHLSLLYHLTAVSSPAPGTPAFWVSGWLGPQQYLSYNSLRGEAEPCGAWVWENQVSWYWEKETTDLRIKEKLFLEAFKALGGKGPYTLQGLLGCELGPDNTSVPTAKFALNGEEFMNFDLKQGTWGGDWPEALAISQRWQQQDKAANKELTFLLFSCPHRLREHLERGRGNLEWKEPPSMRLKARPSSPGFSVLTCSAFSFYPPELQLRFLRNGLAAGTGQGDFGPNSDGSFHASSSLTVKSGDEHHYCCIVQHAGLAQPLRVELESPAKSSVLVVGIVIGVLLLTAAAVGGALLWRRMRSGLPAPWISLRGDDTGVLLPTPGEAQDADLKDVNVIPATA
human FcRn (FCGRT and beta-2 microglobulin) expressed on MDCK II cells (human), sequence (P61769 21-119, chain 2 of 2, further chain): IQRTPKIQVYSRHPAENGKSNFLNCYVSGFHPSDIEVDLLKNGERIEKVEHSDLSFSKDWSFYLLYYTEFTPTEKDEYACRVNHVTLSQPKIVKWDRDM

human FcRn complex (FCGRT and beta-2 microglobulin), recombinant, purified (human), sequence (P55899 24-297 limits assumed, chain 1 of 2): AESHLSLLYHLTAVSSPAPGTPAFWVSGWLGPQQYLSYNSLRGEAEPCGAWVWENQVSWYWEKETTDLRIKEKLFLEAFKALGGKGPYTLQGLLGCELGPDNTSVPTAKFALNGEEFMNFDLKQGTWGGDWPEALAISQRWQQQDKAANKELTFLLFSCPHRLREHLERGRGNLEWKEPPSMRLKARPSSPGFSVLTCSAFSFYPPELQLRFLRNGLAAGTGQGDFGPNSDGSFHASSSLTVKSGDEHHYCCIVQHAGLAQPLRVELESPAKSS
human FcRn complex (FCGRT and beta-2 microglobulin), recombinant, purified (human), sequence (P61769 21-119 limits assumed, chain 2 of 2, further chain): as the sequence (P61769 21-119, chain 2 of 2, further chain) above

Row | Substance | Kd [1] [nM] | Kd [2] [nM] | Kd [3] [nM] | koff [3] [s⁻¹] | kon [3] [M⁻¹ s⁻¹] | Kd [4] [nM] | Transcytosis Normalized to WT (normalized to WT) [5]
1 | anti-Abeta hIgG1 antibody, Fc modification D1 (M252Y/N434Y) | 14 | 1150 | – | – | – | – | –
2 | anti-Abeta hIgG1 antibody, Fc modification Q1 (M252Y/T307Q/Q311I/N434Y) | 12.7 | 206 | – | – | – | – | –
3 | anti-Abeta hIgG1 antibody, Fc modification Q2 (M252Y/T307Q/M428L/N434Y) | 10.2 | 482 | – | – | – | – | –
4 | anti-Abeta hIgG1 antibody, Fc modification Q3 (M252Y/T307Q/N434Y/Y436I) | – | 206 | – | – | – | – | –
5 | anti-Abeta hIgG1 antibody, Fc modification Q4 (M252Y/Q311I/M428L/N434Y) | 12.8 | 667 | – | – | – | – | –
6 | anti-Abeta hIgG1 antibody, Fc modification Q5 (M252Y/Q311I/N434Y/Y436I) | 10.8 | 265 | – | – | – | – | –
7 | anti-Abeta hIgG1 antibody, Fc modification Q6 (M252Y/M428L/N434Y/Y436I) | 10.2 | 367 | – | – | – | – | –
8 | anti-Abeta hIgG1 antibody, Fc modification Q7 (M252Y/Q311A/N434Y/Y436I) | 8.2 | 292 | – | – | – | – | –
9 | anti-Abeta hIgG1 antibody, Fc modification Q95 (M252Y/T307Q/Q311A/N434Y) | 8.2 | 340 | – | – | – | – | –
10 | anti-Abeta hIgG1 antibody, Fc modification T3 (M252Y/Q311I/N434Y) | 11.6 | 554 | – | – | – | – | –
11 | anti-Abeta hIgG1 antibody, Fc modification T94 (M252Y/N286E/N434Y) | 10.1 | 521 | – | – | – | – | –
12 | anti-Abeta hIgG4 antibody, Fc modification Q1 (M252Y/T307Q/Q311I/N434Y) | 6.3 | 165 | – | – | – | – | –
13 | anti-Abeta hIgG4 antibody, Fc modification Q2 (M252Y/T307Q/M428L/N434Y) | – | 339 | – | – | – | – | –
14 | anti-Abeta hIgG4 antibody, Fc modification Q3 (M252Y/T307Q/N434Y/Y436I) | 5.9 | 158 | – | – | – | – | –
15 | anti-Abeta hIgG4 antibody, Fc modification Q5 (M252Y/Q311I/N434Y/Y436I) | – | 151 | – | – | – | – | –
16 | anti-BACE1 hIgG1 antibody, Fc modification D1 (M252Y/N434Y) | 13 | 1010 | 28.7 | 0.0264 | 919000 | 963 | 79
17 | anti-BACE1 hIgG1 antibody, Fc modification Q3 (M252Y/T307Q/N434Y/Y436I) | 6.5 | 170 | – | – | – | 202 | 137
18 | anti-BACE1 hIgG1 antibody, Fc modification Q5 (M252Y/Q311I/N434Y/Y436I) | 8.8 | – | 5.09 | – | – | 252 | 133
19 | anti-BACE1 hIgG1 antibody, Fc modification T3 (M252Y/Q311I/N434Y) | 9.1 | 307 | 14 | – | – | – | 137
20 | anti-BACE1 hIgG1 antibody, Fc modification T94 (M252Y/N286E/N434Y) | – | 380 | 13.6 | – | – | 452 | 87
21 | anti-BACE1 hIgG1 antibody, Fc modification T96 (M252Y/V308P/N434Y) | – | – | 3.54 | 0.00314 | 887000 | 123 | 94
22 | anti-BACE1 hIgG4 antibody, Fc modification Q2 (M252Y/T307Q/M428L/N434Y) | 6.6 | 370 | – | – | – | – | –
23 | anti-BACE1 hIgG4 antibody, Fc modification Q3-IgG4 (M252Y/T307Q/N434Y/Y436I) | 4.8 | 124 | 3.87 | – | – | – | 87
